Experimental data published in paper PMC10696041 (2023).

Biological target: T1, PCPE1 (Homo sapiens (Human), UniProt Q15113)
T1 chain: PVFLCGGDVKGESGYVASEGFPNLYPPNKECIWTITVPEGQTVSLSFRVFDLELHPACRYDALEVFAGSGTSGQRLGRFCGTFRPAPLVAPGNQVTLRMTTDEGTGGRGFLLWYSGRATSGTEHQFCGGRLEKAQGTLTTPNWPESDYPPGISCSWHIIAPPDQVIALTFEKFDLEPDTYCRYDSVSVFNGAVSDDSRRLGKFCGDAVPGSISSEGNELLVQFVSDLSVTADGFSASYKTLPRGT
Assay: Ki app, fluorogenic peptide

apparent Ki: > 150 nM
B1: BMP1 (protein)
chain: AATSRPERVWPDGVIPFVIGGNFTGSQRAVFRQAMRHWEKHTCVTFLERTDEDSYIVFTYRPCGCCSYVGRRGGGPQAISIGKNCDKFGIVVHELGHVVGFWHEHTRPDRDRHVSIVRENIQPGQEYNFLKMEPQEVESLGETYDFDSIMHYARNTFSRGIFLDTIVPKYEVNGVKPPIGQRTRLSKGDIAQARKLYKCPACGETLQDSTGNFSSPEYPNGYSAHMHCVWRISVTPGEKIILNFTSLDLYRSRLCWYDYVEVRDGFWRKAPLRGRFCGSKLPEPIVSTDSRLWVEFRSSSNWVGKGFFAVYEAICGGDVKKDYGHIQSPNYPDDYRPSKVCIWRIQVSEGFHVGLTFQSFEIERHDSCAYDYLEVRDGHSESSTLIGRYCGYEKPDDIKSTSSRLWLKFVSDGSINKAGFAVNFFK
